Measured values reported in US20240141007A1 (XILIO DEVELOPMENT, published 2024).

B1: UCM76 (Fc fusion)
chain 1: DKTHTCPPCPAPELLGGPSVFLFPPKPKDTLMISRTPEVTCVVVDVSHEDPEVKFNWYVDGVEVHNAKTKPREEQYASTYRVVSVLTVLHQDWLNGKEYKCKVSNKALPAPIEKTISKAKGQPREPQVYTLPPCRDELTKNQVSLWCLVKGFYPSDIAVEWESNGQPENNYKTTPPVLDSDGSFFLYSKLTVDKSRWQQGNVFSCSVMHEALHNRFTQKSLSLSPGGSPGAPTSSSTKKTQLQLEHLLLDLQMILNGINNYKNPKLTAMLTAKFAMPKKATELKHLQCLEEALKPLEEVLNLAQSKNFHLRPRDLISNINVIVLELKGSETTFMCEYADETATIVEFLNRWITFAQSIISTLT
chain 2: DKTHTCPPCPAPELLGGPSVFLFPPKPKDTLMISRTPEVTCVVVDVSHEDPEVKFNWYVDGVEVHNAKTKPREEQYASTYRVVSVLTVLHQDWLNGKEYKCKVSNKALPAPIEKTISKAKGQPREPQVCTLPPSRDELTKNQVSLSCAVKGFYPSDIAVEWESNGQPENNYKTTPPVLDSDGSFFLVSKLTVDKSRWQQGNVFSCSVMHEALHNHYTQMPYDLYHPNFMLTQPHSVSESPGKTVTISCTRSSGSIASNYVQWYQQRPGSSPTTVIYEDNQRPSGVPDRFSGSIDSSSNSASLTISGLKTEDEADYYCQTYDSIDVYFGGGTKLTVLGGGGGSGGGGSGGGGSGGGGSQLQLQESGPGLVKPSQTLSLTCTVSGGSISSGGYYWSWIRQHPGKGLEWIGYIYKSGSAYYSPSLKSRVTISVDTSKNQFSLKLSSVTAADTAVYYCARTPTVTGDWFDPWGRGTLVTVSS
B2: UCM75 (Fc fusion)
chain 1: DKTHTCPPCPAPELLGGPSVFLFPPKPKDTLMISRTPEVTCVVVDVSHEDPEVKFNWYVDGVEVHNAKTKPREEQYASTYRVVSVLTVLHQDWLNGKEYKCKVSNKALPAPIEKTISKAKGQPREPQVYTLPPCRDELTKNQVSLWCLVKGFYPSDIAVEWESNGQPENNYKTTPPVLDSDGSFFLYSKLTVDKSRWQQGNVFSCSVMHEALHNRFTQKSLSLSPGGSPG
chain 2: DKTHTCPPCPAPELLGGPSVFLFPPKPKDTLMISRTPEVTCVVVDVSHEDPEVKFNWYVDGVEVHNAKTKPREEQYASTYRVVSVLTVLHQDWLNGKEYKCKVSNKALPAPIEKTISKAKGQPREPQVCTLPPSRDELTKNQVSLSCAVKGFYPSDIAVEWESNGQPENNYKTTPPVLDSDGSFFLVSKLTVDKSRWQQGNVFSCSVMHEALHNHYTVPLSLYSGG
B3: UCM77 (Fc fusion)
chain 1: DKTHTCPPCPAPELLGGPSVFLFPPKPKDTLMISRTPEVTCVVVDVSHEDPEVKFNWYVDGVEVHNAKTKPREEQYASTYRVVSVLTVLHQDWLNGKEYKCKVSNKALPAPIEKTISKAKGQPREPQVYTLPPCRDELTKNQVSLWCLVKGFYPSDIAVEWESNGQPENNYKTTPPVLDSDGSFFLYSKLTVDKSRWQQGNVFSCSVMHEALHNRFTQKSLSLSPGGSPGAPTSSSTKKTQLQLEHLLLDLQMILNGINNYKNPKLTAMLTAKFAMPKKATELKHLQCLEEALKPLEEVLNLAQSKNFHLRPRDLISNINVIVLELKGSETTFMCEYADETATIVEFLNRWITFAQSIISTLT
chain 2: DKTHTCPPCPAPELLGGPSVFLFPPKPKDTLMISRTPEVTCVVVDVSHEDPEVKFNWYVDGVEVHNAKTKPREEQYASTYRVVSVLTVLHQDWLNGKEYKCKVSNKALPAPIEKTISKAKGQPREPQVCTLPPSRDELTKNQVSLSCAVKGFYPSDIAVEWESNGQPENNYKTTPPVLDSDGSFFLVSKLTVDKSRWQQGNVFSCSVMHEALHNHYTRAAAVKSPG
B4: UCM78 (Fc fusion)
chain 1: DKTHTCPPCPAPELLGGPSVFLFPPKPKDTLMISRTPEVTCVVVDVSHEDPEVKFNWYVDGVEVHNAKTKPREEQYASTYRVVSVLTVLHQDWLNGKEYKCKVSNKALPAPIEKTISKAKGQPREPQVYTLPPCRDELTKNQVSLWCLVKGFYPSDIAVEWESNGQPENNYKTTPPVLDSDGSFFLYSKLTVDKSRWQQGNVFSCSVMHEALHNRFTQKSLSLSPGGSPG
chain 2: DKTHTCPPCPAPELLGGPSVFLFPPKPKDTLMISRTPEVTCVVVDVSHEDPEVKFNWYVDGVEVHNAKTKPREEQYASTYRVVSVLTVLHQDWLNGKEYKCKVSNKALPAPIEKTISKAKGQPREPQVCTLPPSRDELTKNQVSLSCAVKGFYPSDIAVEWESNGQPENNYKTTPPVLDSDGSFFLVSKLTVDKSRWQQGNVFSCSVMHEALHNHYTQRPLALWRS
B5: UCM79 (Fc fusion)
chain 1: DKTHTCPPCPAPELLGGPSVFLFPPKPKDTLMISRTPEVTCVVVDVSHEDPEVKFNWYVDGVEVHNAKTKPREEQYASTYRVVSVLTVLHQDWLNGKEYKCKVSNKALPAPIEKTISKAKGQPREPQVYTLPPCRDELTKNQVSLWCLVKGFYPSDIAVEWESNGQPENNYKTTPPVLDSDGSFFLYSKLTVDKSRWQQGNVFSCSVMHEALHNRFTQKSLSLSPGGSPG
chain 2: DKTHTCPPCPAPELLGGPSVFLFPPKPKDTLMISRTPEVTCVVVDVSHEDPEVKFNWYVDGVEVHNAKTKPREEQYASTYRVVSVLTVLHQDWLNGKEYKCKVSNKALPAPIEKTISKAKGQPREPQVCTLPPSRDELTKNQVSLSCAVKGFYPSDIAVEWESNGQPENNYKTTPPVLDSDGSFFLVSKLTVDKSRWQQGNVFSCSVMHEALHNHYTAPAGLIVPYN
B6: UCM81 (Fc fusion)
chain 1: DKTHTCPPCPAPELLGGPSVFLFPPKPKDTLMISRTPEVTCVVVDVSHEDPEVKFNWYVDGVEVHNAKTKPREEQYASTYRVVSVLTVLHQDWLNGKEYKCKVSNKALPAPIEKTISKAKGQPREPQVYTLPPCRDELTKNQVSLWCLVKGFYPSDIAVEWESNGQPENNYKTTPPVLDSDGSFFLYSKLTVDKSRWQQGNVFSCSVMHEALHNRFTQKSLSLSPGGSPG
chain 2: DKTHTCPPCPAPELLGGPSVFLFPPKPKDTLMISRTPEVTCVVVDVSHEDPEVKFNWYVDGVEVHNAKTKPREEQYASTYRVVSVLTVLHQDWLNGKEYKCKVSNKALPAPIEKTISKAKGQPREPQVCTLPPSRDELTKNQVSLSCAVKGFYPSDIAVEWESNGQPENNYKTTPPVLDSDGSFFLVSKLTVDKSRWQQGNVFSCSVMHEALHNHYTPANLVAPDP
B7: UCM80 (Fc fusion)
chain 1: DKTHTCPPCPAPELLGGPSVFLFPPKPKDTLMISRTPEVTCVVVDVSHEDPEVKFNWYVDGVEVHNAKTKPREEQYASTYRVVSVLTVLHQDWLNGKEYKCKVSNKALPAPIEKTISKAKGQPREPQVYTLPPCRDELTKNQVSLWCLVKGFYPSDIAVEWESNGQPENNYKTTPPVLDSDGSFFLYSKLTVDKSRWQQGNVFSCSVMHEALHNRFTQKSLSLSPGGSPG
chain 2: DKTHTCPPCPAPELLGGPSVFLFPPKPKDTLMISRTPEVTCVVVDVSHEDPEVKFNWYVDGVEVHNAKTKPREEQYASTYRVVSVLTVLHQDWLNGKEYKCKVSNKALPAPIEKTISKAKGQPREPQVCTLPPSRDELTKNQVSLSCAVKGFYPSDIAVEWESNGQPENNYKTTPPVLDSDGSFFLVSKLTVDKSRWQQGNVFSCSVMHEALHNHYTQPVSLRSGS

Molecular target: T1, human FcRn (human, UniProt P55899 24-297; P61769 21-119)
T1 construct: also called hFcRn
Experiment: SPR, hFcRn as ligand
Source text: Surface Plasmon Resonance (SPR) protein binding assay was used to measure FcRn binding.

T1 sequence (P55899 24-297 limits assumed, chain 1 of 2): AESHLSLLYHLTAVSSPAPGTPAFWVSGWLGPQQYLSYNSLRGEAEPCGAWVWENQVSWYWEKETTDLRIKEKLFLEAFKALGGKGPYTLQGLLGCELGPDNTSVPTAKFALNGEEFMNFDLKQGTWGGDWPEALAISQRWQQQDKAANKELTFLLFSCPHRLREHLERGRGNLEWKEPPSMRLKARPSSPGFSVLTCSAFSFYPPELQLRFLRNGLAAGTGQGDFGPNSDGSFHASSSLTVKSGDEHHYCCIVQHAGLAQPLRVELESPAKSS
T1 sequence (P61769 21-119 limits assumed, chain 2 of 2): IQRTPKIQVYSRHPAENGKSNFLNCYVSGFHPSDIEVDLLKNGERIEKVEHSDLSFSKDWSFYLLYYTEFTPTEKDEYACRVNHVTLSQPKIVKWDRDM

Row | Binder | Kd
1 | B1 | 551 nM
2 | B2 | 1490 nM
3 | B3 | 312 nM
4 | B4 | 181 nM
5 | B5 | 1310 nM
6 | B6 | 1100 nM
7 | B7 | 565 nM
